Measurements from patent US7638284B2, “Immunoglobulin A inducing protein and uses therefor” (The Curators of the University of Missouri, priority 2000, dated 2009).

Test system: IGIP transcripts
Assay: RT-PCR of IGIP transcripts in stimulated monocyte derived dendritic cells
Assay type: cell-based
Settings: human monocyte derived dendritic cells
Experimental: PBMCs were labeled with anti-CD14 microbeads at 4° C. for 45 minutes, washed three times in sorting buffer. Pure CD14+blood monocytes were then separated by AutoMACS, and cultured at 37° C. for 6 days in cRPMI with 1400 U/ml Leukine (rhGM-CSF) and 10 ng/ml rhIL-4. Non-adherent cells were collected at day six, and purity of dendritic cells was determined by flow cytometry.
Enriched dendritic cell cultures were stimulated with rhCD40L, Pam3CSK, Poly I:C, LPS, CpG DNA, or PMA and Ionomycin for 0, 12, 18, 24, 48, and 72 hours. Total RNA was extracted from harvested cells and treated with DNase to remove any potential contaminating DNA. IGIP was amplified by RT-PCR.
Human dendritic cells (DC) were derived from peripheral blood monocytes by culturing in GM-CSF and IL-4 for 6-7 days. IGIP transcripts were detected by RT-PCR in total RNA from approximately 10^6 monocyte derived DC (mDC) following either Toll-like receptor (TLR) binding or CD40 ligation.

B1: CD40L: rhCD40L used to stimulate dendritic cell cultures (protein, UniProt P29965 113-261, looked up)
CD40 ligand, soluble form: MQKGDQNPQIAAHVISEASSKTTSVLQWAEKGYYTMSNNLVTLENGKQLTVKRQGLYYIYAQVTFCSNREASSQAPFIASLCLKSPGRFERILLRAANTHSSAKPCGQQSIHLGGVFELQPGASVFVNVTDPSQVSHGTGFTSFGLLKL
loss of IGIP transcripts post stimulation: no longer detectable after 48 hours | time after stimulation at which IGIP was detectable: approximately 12 hours | time of peak IGIP expression: 24 h
